According to article PMC7052140:

Experiments:
[1] = molecular target: Cyt1Aa E32Q activated toxin (Bacillus thuringiensis subsp. israelensis)
[2] = molecular target: Cyt1Aa E45Q activated toxin (Bacillus thuringiensis subsp. israelensis)
[3] = molecular target: Cyt1Aa Q168E activated toxin (Bacillus thuringiensis subsp. israelensis)
[4] = molecular target: Cyt1Aa activated toxin, wild type (Bacillus thuringiensis subsp. israelensis) (UniProt P0A382); assay: atomic force microscopy on supported lipid bilayers

“Cyt1Aa E32Q activated toxin (domain or fragment)” gave a fold reduction of cytotoxicity on HEK293 cells against the WT toxin [1] of 2.4 fold.

For “Cyt1Aa E45Q activated toxin (domain or fragment)”, the fold reduction of cytotoxicity on HEK293 cells against the WT toxin [2] was 14 fold.

“Cyt1Aa Q168E activated toxin (domain or fragment)” gave a cytotoxicity on HEK293 cells (LC50) [3] of over 30 µM.

For “Cyt1Aa activated toxin, wild type (from UniProt P0A382 1-249) (domain or fragment)”, the stoichiometry N [4] was 56.
